# Data reported in patent US20240076389A1 (NATIONAL RESEARCH COUNCIL OF CANADA, published 2024).
# T1: human AXL expressed on the cell surface of tumor cell lines (human, UniProt P30530 26-894)
# T1 construct: whole, on cells; also called cell surface-expressed AXL; cell-based AXL
# T1 sequence (looked up): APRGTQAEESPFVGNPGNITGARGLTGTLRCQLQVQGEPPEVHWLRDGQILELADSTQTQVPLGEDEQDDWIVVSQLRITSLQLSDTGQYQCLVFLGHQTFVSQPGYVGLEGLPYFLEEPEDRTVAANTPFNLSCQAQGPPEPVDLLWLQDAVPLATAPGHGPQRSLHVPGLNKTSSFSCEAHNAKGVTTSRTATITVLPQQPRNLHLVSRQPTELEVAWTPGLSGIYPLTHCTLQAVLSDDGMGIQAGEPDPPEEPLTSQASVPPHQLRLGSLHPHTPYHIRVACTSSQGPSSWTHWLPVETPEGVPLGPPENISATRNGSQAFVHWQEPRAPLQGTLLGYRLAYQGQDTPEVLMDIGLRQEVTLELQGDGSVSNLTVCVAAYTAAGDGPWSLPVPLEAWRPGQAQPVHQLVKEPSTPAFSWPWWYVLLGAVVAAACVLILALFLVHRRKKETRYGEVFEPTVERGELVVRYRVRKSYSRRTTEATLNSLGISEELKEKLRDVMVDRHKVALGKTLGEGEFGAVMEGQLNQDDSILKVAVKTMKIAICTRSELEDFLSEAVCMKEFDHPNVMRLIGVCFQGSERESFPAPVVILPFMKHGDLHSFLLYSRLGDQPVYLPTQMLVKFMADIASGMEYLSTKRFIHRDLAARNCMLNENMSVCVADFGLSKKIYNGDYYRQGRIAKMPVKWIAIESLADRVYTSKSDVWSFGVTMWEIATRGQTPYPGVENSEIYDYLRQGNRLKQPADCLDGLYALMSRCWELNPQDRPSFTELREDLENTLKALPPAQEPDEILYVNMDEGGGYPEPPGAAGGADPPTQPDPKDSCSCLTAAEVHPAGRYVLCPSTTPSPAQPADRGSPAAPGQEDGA
# T2: huMER-ECD displayed on yeast (human, UniProt Q12866 21-505)
# T2 construct: extracellular domain
# T2 sequence (looked up): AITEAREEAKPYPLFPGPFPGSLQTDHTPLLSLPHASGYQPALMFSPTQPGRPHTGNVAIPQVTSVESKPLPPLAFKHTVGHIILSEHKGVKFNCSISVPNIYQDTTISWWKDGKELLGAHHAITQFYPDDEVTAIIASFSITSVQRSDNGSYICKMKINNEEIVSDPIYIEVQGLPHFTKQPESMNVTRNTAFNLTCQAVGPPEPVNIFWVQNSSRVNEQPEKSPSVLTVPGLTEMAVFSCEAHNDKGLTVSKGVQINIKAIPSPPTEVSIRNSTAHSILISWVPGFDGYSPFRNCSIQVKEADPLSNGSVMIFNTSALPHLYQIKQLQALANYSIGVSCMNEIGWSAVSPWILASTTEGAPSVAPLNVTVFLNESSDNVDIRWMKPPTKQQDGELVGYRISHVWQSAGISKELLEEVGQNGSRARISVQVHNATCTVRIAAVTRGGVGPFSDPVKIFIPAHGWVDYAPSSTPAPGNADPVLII
# T3: recombinant human AXL extracellular domain, C-terminally His8-tagged (rhAXL-ECD) (human, UniProt P30530 26-451)
# T3 construct: Made in CHO cells; also called (rh)AXL-ECD His8; human AXL ECD
# T3 sequence: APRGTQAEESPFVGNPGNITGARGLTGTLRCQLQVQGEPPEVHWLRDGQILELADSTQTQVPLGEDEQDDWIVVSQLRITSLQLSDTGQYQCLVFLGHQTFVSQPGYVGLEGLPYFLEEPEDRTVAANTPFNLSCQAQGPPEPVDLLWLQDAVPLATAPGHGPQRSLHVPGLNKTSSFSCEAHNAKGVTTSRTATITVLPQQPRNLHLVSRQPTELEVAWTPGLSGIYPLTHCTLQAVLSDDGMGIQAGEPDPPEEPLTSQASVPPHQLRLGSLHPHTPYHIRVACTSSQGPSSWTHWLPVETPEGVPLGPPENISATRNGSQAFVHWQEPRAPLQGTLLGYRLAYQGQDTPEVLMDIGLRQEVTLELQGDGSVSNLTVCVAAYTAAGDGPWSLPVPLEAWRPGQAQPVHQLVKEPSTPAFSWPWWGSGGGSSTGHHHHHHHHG
# Tests used:
# [1] = target: T1, human AXL expressed on the cell surface …; assay: FACS on MDA-MB-231 luciferase cells, apparent Kd
# Protocol: FACS binding assay. Adherent cells were dissociated with non-enzymatic Sigma Cell Dissociation Solution (Cat. No. C5789). Cells suspensions were added to polypropylene, V-bottom 96-well plates and incubated for 2 hours on ice with primary antibodies at concentrations ranging from 100 nM to 0.001 nM or at a single dose of 100 nM (for the non-specific control). After incubation and washes, cells were incubated with fluorescently labeled secondary antibody (Alexa Fluor® 488 anti-human IgG from Jackson Cat. No 709-546-098) for 1 hour on ice, then washed. Cell viability was determined using Fixable viability dye 450 (20 min on ice). Stained cells were fixed in 1% formaldehyde at 4° C. and stored at 4° C. until acquisition which was performed the next day.
# Binding of recombinant chimeric Abs to three cell lines was assessed by FACS as described above. The apparent Bmax and Kd determination is shown below in Table 14.
# [2] = target: T2, huMER-ECD displayed on yeast; assay: yeast surface display ELISA, non-denatured yeast, goat anti-human F(ab')2-HRP
# [3] = target: T3, recombinant human AXL extracellular …; assay: ELISA on coated AXL ECD (100 ng/well), VHH-Fc, HRP-protein A
# Protocol: ELISA. ELISAs against human, cyno and mouse AXL ECDs were conducted by immobilizing 100 ng of each protein in wells of Nunc MaxiSorp microplates overnight. Human AXL (aa 1-451) and cyno AXL (aa 1-449) were produced recombinantly as described in Example 10. Mouse AXL was purchased from Sino (cat. 51026-M08H). The next day, plates were blocked with 5% (w/v) dried milk in PBS. Murine mAbs (either hybridoma- or recombinantly-produced) or VHH-Fcs were diluted in PBS containing 1% BSA and 0.1% Tween-20 and added to wells for 2 hours at room temperature. Wells were washed 5× with PBS containing 0.1% Tween-20, then HRP-labeled protein A (diluted 1:1000 in PBS containing 1% BSA and 0.1% Tween™-20) was added to wells for 1 hour at room temperature. Wells were washed again 5× with PBS/0.1% Tween-20 and developed using TMB substrate. Absorbance was measured at 450 nm. As a positive control for mouse AXL binding, a commercial anti-mouse AXL mAb (clone 175128, R&D Systems MAB8541, rat IgG2A) was used and detected with donkey […] secondary antibody.
Kd [1] [nM],yeast ELISA signal normalized to myc expression level [2],EC50 [3] [nM],Binder
0.101,-0.02,–,"hFC-F107-10G1 (antibody, human IgG1, kappa, V domains shown, Chimeric mAb, human IgG1 / human kappa constant regions; also called mAb F107-10G1) VH: EVNLVESGGGVVKPGASLKLSCEASGFTFSNYGMSWVRQTSDKRLEWVASISGGGGRTYYLDNVKGRFIISRENAKNTLYLQMSSLKSEDTALFYCARGARASYFAMDYWGQGSSVTVSS VL: VIVMTQSHKFMSTSVGDRVSITCKASQDVTTAVAWYQQKPGQSPKLLIYWASTRHTGVPDRFTGSGSGTDYSLTISNVQTEDLAFYYCQQHFTTPLTFGAGTKLELKR"
–,–,1,"NRC-sdAb001-Fc (VHH-human IgG1 Fc fusion) (Fc fusion, VHH fused N-terminally to human IgG1 Fc, made in HEK293 cells; also called NRC-sdAb0001-Fc; NRC-sdAb001-hIgG1; not shown: human IgG1 Fc) QVKLEESGGGLVQAGGSLRLSCTASASISSFDIMGWYRQAPGKQRELVAAITTLDIANYRDSVKGRFTISRDNAKNTVYLQMDSLKPEDTARYHCAAFQSDQNYWGQGTQVTVSS"
